Measured values as given in US20200270339A1.
Where “and” joins values, the source holds several entries; their conditions need not be identical. Equal entries are not always repeated.

Assays:
[1] = biological target: human IL-15 complexed with the IL-15 Receptor-alpha (human) (UniProt P40933); experiment: SPR, antibody captured on Protein A chip
[2] = biological target: human IL-15 complexed with the IL-15 Receptor-alpha (human) (UniProt P40933); experiment: SPR, antibody captured on Protein A chip, IL-15 complex as analyte
[3] = biological target: human IL-15 complexed with the IL-15 Receptor-alpha (human) (UniProt P40933); experiment: cell-based or functional assay
[4] = biological target: human IL-15 complexed with the IL-15 Receptor-alpha (human) (UniProt P40933); experiment: SPR

Sequence of human IL-15 complexed with the IL-15 Receptor-alpha (human) (P40933 49-162 limits assumed, chain 1 of 2): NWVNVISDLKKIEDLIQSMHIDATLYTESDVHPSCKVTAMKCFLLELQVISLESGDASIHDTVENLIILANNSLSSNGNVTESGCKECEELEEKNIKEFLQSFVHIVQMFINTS
Sequence of human IL-15 complexed with the IL-15 Receptor-alpha (human) (chain, as listed by the source limits assumed, chain 2 of 2): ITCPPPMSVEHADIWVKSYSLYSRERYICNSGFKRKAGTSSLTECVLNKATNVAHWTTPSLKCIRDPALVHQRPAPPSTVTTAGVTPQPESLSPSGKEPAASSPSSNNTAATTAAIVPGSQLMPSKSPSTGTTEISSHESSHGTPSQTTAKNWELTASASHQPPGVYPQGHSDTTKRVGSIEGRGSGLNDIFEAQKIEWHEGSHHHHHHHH
Sequence of AMG714 (antibody) (VH): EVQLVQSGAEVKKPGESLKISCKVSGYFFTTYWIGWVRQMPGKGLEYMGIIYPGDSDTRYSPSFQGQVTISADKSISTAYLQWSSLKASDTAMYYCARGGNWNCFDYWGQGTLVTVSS
Sequence of AMG714 (antibody) (VL): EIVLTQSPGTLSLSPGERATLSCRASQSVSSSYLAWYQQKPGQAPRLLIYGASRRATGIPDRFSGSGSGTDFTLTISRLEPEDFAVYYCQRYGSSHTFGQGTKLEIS

AMG714 (antibody)
fold faster dissociation rate than from Antibody 70 variants [1]: 10 fold
Kd [2]: 1.84 nM
Max IC50 (pM), NK-92 proliferation assay [3]: 2650 pM
Mean IC50 (pM), NK-92 proliferation assay [3]: 1300 pM
Min IC50 (pM), NK-92 proliferation assay [3]: 378 pM
Kd [4]: 1.86 nM and 1.82 nM
koff [4]: 0.000398 s⁻¹ and 0.00038 s⁻¹
kon [4]: 209000 M⁻¹ s⁻¹ and 214000 M⁻¹ s⁻¹
